Measurements taken from patent US6821947.

Target: human recombinant endorepellin tagged with His6, from 293-EBNA cells (human) (UniProt P98160)
Experiment: cell-based or functional assay

Chain of UniProt P98160 (P98160 3687-4391 limits assumed): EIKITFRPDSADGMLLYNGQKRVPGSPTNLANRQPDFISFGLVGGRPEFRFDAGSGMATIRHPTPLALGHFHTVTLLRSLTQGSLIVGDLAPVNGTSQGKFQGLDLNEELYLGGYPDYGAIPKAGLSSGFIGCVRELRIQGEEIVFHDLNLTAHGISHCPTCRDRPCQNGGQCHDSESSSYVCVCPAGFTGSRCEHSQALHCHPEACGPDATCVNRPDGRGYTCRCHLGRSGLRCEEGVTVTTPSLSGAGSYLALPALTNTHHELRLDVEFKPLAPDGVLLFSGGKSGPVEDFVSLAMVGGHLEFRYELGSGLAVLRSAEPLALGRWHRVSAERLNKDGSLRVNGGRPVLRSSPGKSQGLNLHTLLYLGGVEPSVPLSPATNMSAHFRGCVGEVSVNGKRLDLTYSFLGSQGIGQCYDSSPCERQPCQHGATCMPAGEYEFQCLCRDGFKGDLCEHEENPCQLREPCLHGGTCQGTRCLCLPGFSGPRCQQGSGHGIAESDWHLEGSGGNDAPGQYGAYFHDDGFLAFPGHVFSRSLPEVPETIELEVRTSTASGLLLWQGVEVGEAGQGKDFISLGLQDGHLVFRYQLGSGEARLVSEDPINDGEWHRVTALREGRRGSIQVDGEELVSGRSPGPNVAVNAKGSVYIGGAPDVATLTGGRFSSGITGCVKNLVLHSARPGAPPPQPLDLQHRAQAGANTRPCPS

VEGF-induced HUVEC migration through fibrillar collagen (molar ratio of endostatin/endorepellin): 1
Substance: recombinant endostatin purified from Pichia pastoris yeast cells (Calbiochem-Novabiochem)
